Source: patent publication US20260256936A1, “BIOACTIVE CONJUGATES, PREPARATION METHOD AND USE THEREOF” (priority 2023, published 2026)
Where two headings read alike, the source gives them in different places.

B1: ADC3-B (antibody, human IgG1, kappa, V domains shown)
VH: QVQLVQSGAEVKKPGSSVKVSCKASGYTFTNYVMHWVRQAPGQGLEWMGYINPYNDDVKYNEKFKGRVTITADESTSTAYMELSSLRSEDTAVYYCARWGYYGSPLYYFDYWGQGTLVTVSS
VL: EIVLTQSPATLSLSPGERATLSCRASSRLIYMHWYQQKPGQAPRPLIYATSNLASGIPARFSGSGSGTDFTLTISSLEPEDFAVYYCQQWNSNPPTFGQGTKVEIKR
modifications: conjugator-linker-payload on cysteine thiols after TCEP reduction; positions not given
B2: ADC3-A (antibody, human IgG1, kappa, V domains shown)
VH: EVQLVQSGAEVKKPGASVKVSCKASGYSFTDYYMHWVRQAPGQGLEWIGRINPYAGAAFYSQNFKDRVTLTVDTSTSTAYLELSSLRSEDTAVYYCAIERGADLEGYAMDYWGQGTLVTVSS
VL: DIQMTQSPSSLSASVGDRVTITCRASQSVSTSSYNYMHWYQQKPGKPPKLLIKYASNLESGVPSRFSGSGSGTDFTLTISSLQPEDFATYYCQHSWEIPLTFGQGTKVEIKR
modifications: conjugator-linker-payload on cysteine thiols after TCEP reduction; positions not given
B3: ADC3-15 (antibody, human IgG1, kappa, V domains shown)
VH: B2 VH
VL: B2 VL
modifications: conjugator-linker-payload on cysteine thiols after TCEP reduction; positions not given

How the values were obtained:
Assay in all cases: cell-based or functional assay
[1] = biological target: T1, B7H3 on B7H3-expressing cells (NCI-H358, NCI-H1048) (human, UniProt Q5ZPR3 29-534)
T1 sequence (looked up): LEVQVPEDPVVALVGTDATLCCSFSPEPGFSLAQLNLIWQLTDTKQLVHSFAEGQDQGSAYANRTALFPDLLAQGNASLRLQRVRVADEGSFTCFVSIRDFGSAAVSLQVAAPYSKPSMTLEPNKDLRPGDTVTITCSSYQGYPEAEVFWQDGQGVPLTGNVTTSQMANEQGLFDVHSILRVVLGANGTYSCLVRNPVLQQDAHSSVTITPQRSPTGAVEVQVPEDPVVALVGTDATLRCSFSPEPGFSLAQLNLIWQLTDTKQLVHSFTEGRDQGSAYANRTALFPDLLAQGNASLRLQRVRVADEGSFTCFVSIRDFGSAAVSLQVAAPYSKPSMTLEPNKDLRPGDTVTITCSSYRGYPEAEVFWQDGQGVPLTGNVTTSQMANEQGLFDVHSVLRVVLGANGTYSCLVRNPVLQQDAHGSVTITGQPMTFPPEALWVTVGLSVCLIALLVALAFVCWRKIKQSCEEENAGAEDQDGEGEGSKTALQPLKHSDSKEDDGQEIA

[2] = biological target: T2, CLL1 on CLL1-expressing cells (U937, HL60) (human, UniProt Q5QGZ9 1-265)
T2 sequence (looked up): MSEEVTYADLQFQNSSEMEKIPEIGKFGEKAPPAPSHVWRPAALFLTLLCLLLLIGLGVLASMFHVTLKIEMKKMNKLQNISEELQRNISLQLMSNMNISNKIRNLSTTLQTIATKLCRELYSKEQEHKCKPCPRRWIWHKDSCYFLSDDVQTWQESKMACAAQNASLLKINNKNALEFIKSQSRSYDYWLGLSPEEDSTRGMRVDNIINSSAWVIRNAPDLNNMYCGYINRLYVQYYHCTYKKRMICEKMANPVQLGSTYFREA

[3] = biological target: T2, CLL1 on CLL1-expressing cells (U937, …); remark: listed apart in the source
[4] = biological target: T2, CLL1 on CLL1-expressing cells (U937, …); remark: listed apart in the source
[5] = biological target: T2, CLL1 on CLL1-expressing cells (U937, …); remark: listed apart in the source
[6] = biological target: T2, CLL1 on CLL1-expressing cells (U937, …); remark: listed apart in the source

Row | Binder | EC50 (nM) direct cellular killing, NCI-H358 [1] [nM] | EC50 (nM) direct cellular killing, NCI-H1048 [1] [nM] | EC50 (nM) direct cellular killing, HL60 [2] [nM] | EC50 (nM) direct cellular killing, U937 [2] [nM] | EC50 (nM) direct cellular killing, HL60 [3] [nM] | EC50 (nM) direct cellular killing, HL60 [4] [nM] | EC50 (nM) direct cellular killing, U937 [4] [nM] | EC50 (nM) direct cellular killing, HL60 [5] [nM] | EC50 (nM) direct cellular killing, HL60 [6] [nM] | EC50 (nM) direct cellular killing, U937 [6] [nM]
1 | B1 | 0.1 | 0.2 |  |  |  |  |  |  |  | 
2 | B2 |  |  | 6.3 | 0.8 | 6.5 | 1.4 | 0.7 | 4.8 | 10.9 | 0.7
3 | B3 |  |  |  |  |  |  |  |  | 6.5 | 0.3
